From US12662540B2, “Compositions and methods for inhibition of MICA/B shedding” (DANA-FARBER CANCER INSTITUTE, INC., priority 2017, dated 2026)

Legend:
[1] = system: short-term human melanoma cell lines; assay: MICA/MICB shedding by short-term human melanoma cell lines; format: cell-based; settings: 24-72 hours
Source text: A375, HCT-116, SK-N-SH, K562, A2058, B16F10, CT26, and Neuro-2a cell lines were all obtained from American Type Culture Collection (ATCC). HEPG2 and MDA-MB-231 cell lines were kindly provided by Drs. Chandan Sharma and Martin Hemler, Dana-Farber Cancer Institute, Boston. The EL4 and RMA-S cell lines were generous gifts from Dr. Mark Smyth, QIMR Berghofer Medical Research Institute, Herston, Australia. The short-term human melanoma cell lines CY.21A-S1, CY36-S1, and CY048-S were obtained from patients following surgical resection of metastatic lesions as previously described (27). All cell lines were mycoplasma free, as tested by MycoProbe Mycoplasma Detection Kit (R&D Systems). Human and murine cell lines were cultivated in RPMI-1640 or DMEM media, respectively, supplemented with 10% fetal bovine serum (FBS), 1× Glutamax® (Gibco), and 1× Penicillin and Streptomycin (Gibco). […]
Tumor cells (5×10^4 or 1×10^5 per well, depending on the cell line) were cultured for 24 to 72 hours in 96-well plates (flat-bottom plates for adherent cell lines, U-bottom plates for suspension cell lines). […] MICA or control antibodies were added at different concentrations, and shed MICA/B was then detected in supernatants by ELISA using the Human MICA ELISA kit (Ab59569, Abcam) or Human MICB DuoSet ELISA kit (DY1599, R&D Systems), using the procedures recommended by the manufacturers. […]

[2] = system: subcutaneous B16F10 tumors; assay: Subcutaneous B16F10-MICA model; format: in vivo, mice (C57BL/6, Igh−/−)
Method: C57BL/6 mice were injected subcutaneously with 1×10^6 B16F10 cells that had been transduced with different lentiviral vectors (ZsGreen reporter). Five days later, treatment was initiated with 7C6-mIgG2a, 7C6-mIgG2b-DANA, or isotype control (C1184) antibodies (200 μg/mouse). Treatment was continued as indicated in the relevant figures. For antibody blockade, Igh^−/− mice were given 200 μg/mouse of anti-NKG2D (HMG2D) or control IgG (MOPC-21) on days −1, 0, 5, 9, 14, and 19. Mice were bled on day 9. Tumor size was monitored with a digital caliper and the tumor area was calculated by multiplying the two largest diameters. To minimize suffering, the end point was defined as a tumor size of 200 mm2.
C57BL/6 mice were injected subcutaneously with 1×10^6 B16F10 cells that had been transduced with different lentiviral vectors (ZsGreen reporter). Five days later, treatment was initiated with 7C6-mIgG2a, 7C6-mIgG2b-DANA, or isotype control (C1184) antibodies (200 μg/mouse). Treatment was continued as indicated in the relevant Figures. For antibody blockade, Igh^−/− mice were given 200 μg/mouse of anti-NKG2D (HMG2D) or control IgG (MOPC-21) on days −1, 0, 5, 9, 14, and 19. Mice were bled on day 9. Tumor size was monitored with a digital caliper and the area was calculated by multiplying the two largest diameters. To minimize suffering, the end point was defined as the time point when tumors reached a size of 200 mm^2.
Igh^−/− mice were injected subcutaneously with 1×10^6 B16F10-MICA cells that had been transduced with a ZsGreen-based lentiviral vector that drives MICA expression. On days 5, 7 and 9 after tumor cell inoculation, mice were treated with 200 μg 7C6-mIgG2a or isotype control antibodies. On days 7 and 14, sets of mice were euthanized and tumors were removed. Tumors were then mechanically dissociated to preserve MICA integrity on the cell surface. Next, Fc receptors were blocked using Mouse True Stain FcX (Biolegend). Cells were subsequently stained with a PE-conjugated anti-mouse IgG antibody (Poly4053, Biolegend). Cells were then washed and stained with APC-conjugated anti-MICAS antibody (6D4), PE-Cγ7-CD45.2 and Zombie NIR (all from Biolegend). Viable tumor cells were identified by flow cytometry based on size, ZsGreen fluorescence and absence of CD45.2 expression. Samples were examined using a Sony Spectral Analyzer or Beckman Coulter CytoFLEX, and data were analyzed by FlowJo.

MICA = assay: ELISA for antibody binding to immobilized MICA extracellular domain (α1-α3 domains; alleles 002, 008, 009, 018); design: species or system human; settings: immobilized antigen
Method: (§1) ELISA experiments were performed in DELFIA® 96-well plates (Perkin Elmer) or in Nunc Maxisorp 96-wells plates (Thermo Scientific). Wells were coated with antigens by overnight incubation at 4° C. using 100 ng of protein in 100 μl of carbonate buffer, […]. Plates were subsequently washed with 1× Tris-buffered saline-Tween buffer and incubated for 2 hours with 2% bovine serum albumin (BSA) in phosphate buffered saline (PBS), pH 7.4, or DELFIA® Assay Buffer (Perkin Elmer) at room temperature. MICA antibodies were used at 1 μg/ml, unless indicated otherwise. Isotype controls were MPC-11 (mIgG2b) and MOPC-21 (mIgG1), but only MPC-11 is shown in the figures, given that no differences were observed between these controls. Human isotype control was a recombinant human IgG1 antibody (BE0096, BioXcell). Biotinylated goat anti-mouse IgG (Poly4053—Biolegend) was used as the secondary antibody which was followed by streptavidin-Europium (Perkin Elmer) and DELFIA® Enhancement Solution (Perkin Elmer). Europium fluorescence was quantified using an EnVision® microplate reader (Perkin Elmer). The HRP-conjugated secondary antibodies were Novex® Goat anti-human IgG (A24470, Life Technologies), Goat anti-mouse IgG1 (1070-05), IgG2a (1080-08), IgG2b (1090-05), and IgG3 (1100-05), and Goat anti-mouse IgG (31430, Thermo Scientific). […] Absorbance was read at 450 nm.

MICA α3 domain = assay: ELISA for antibody binding to immobilized MICA α3 domain; design: species or system human; settings: fluorescence-based ELISA, immobilized antigen
Method: as §1

B1: 7C6: monoclonal antibody from mice immunized with recombinant MICA α3 domain; parental mIgG2b; VH SEQ ID NO: 7, VL SEQ ID NO: 8 (antibody)
VH: QIQLVQSGPELKKPGETVKVSCKASGYMFTNYAMNWVKQAPEKGLKWMGWINTHTGDPTYADDFKGRIAFSLETSASTAYLQINNLKNEDTATYFCVRTYGNYAMDYWGQGTSVTVSSAKTTAPSVYPLAPVCGDTTGSSVTLGCLVKGYFPEPVTLTWNSGSLSSGVHTFPAVLQSDLYTLSSSVTVTSS
VL: DIQMTQTTSSLSASLGDRVTISCSASQDISNYLNWYQQKPDGTVKLLIYDTSILHLGVPSRFSGSGSGTDYSLTISNLEPEDIATYYCQQYSKFPRTFGGGTTLEIK
modifications: mAb 7C6 heavy chain amino acid sequence; mAb 7C6 light chain amino acid sequence
In the case of B1, the “MICA and MICB shedding by short-term human melanoma cell lines” value [1] is reported as “inhibited MICA and MICB shedding”, the “subcutaneous tumor growth inhibition, Igh−/− versus wild-type mice” value ([2]; B16F10-MICA, 200 μg) is reported as “inhibited growth of subcutaneous B16F10-MICA melanomas more effectively in B cell deficient mice” and the “therapeutic activity against subcutaneous tumors that secrete MICA or lack NKG2D ligands” value ([2]; Igh−/− mice) is reported as “no therapeutic effect was observed”. For the same molecule, the “therapeutic activity against subcutaneous tumors expressing full-length MICA or MICB” value ([2]; Igh−/− mice, treatment from day 5) was “restricted to subcutaneous tumors that expressed full-length MICA or MICB”, the “receptor requirement for inhibition of subcutaneous tumor growth” value ([2]; NKG2D blockade, DANA mutant) was “NKG2D and CD16 Fc receptors were also both required for inhibition of subcutaneous tumor growth” and the “clearance of secreted MICA protein (serum, day 9)” value ([2]; tumors secreting MICA) was “did not promote clearance of secreted MICA protein”. For the same molecule, the “MICA and MICB shedding (serum, day 9)” value ([2]; tumors with full-length MICA or MICB) was “inhibited MICA and MICB shedding”, the “binding to MICA full-length extracellular domain” value (MICA) was “also the full-length extracellular domain” and the “binding to MICA α3 domain” value (MICA α3 domain) was “bound to the MICA α3 domain”.
